The record followed here is paper doi:10.1101/2025.10.27.684941.

For experiment [1], the target named is Venus-PDZ1 (ZO-1) (human) (UniProt Q07157). Nature of the experiment: co-IP.
The target in experiment [2] is biotinylated C-terminal Cx36 peptide, D317F (UniProt O54851). Nature of the experiment: pull-down.
The target of experiment [3] is biotinylated C-terminal Cx36 peptide, D317A (UniProt O54851). The experiment is described as follows: pull-down.

Chain of UniProt Q07157 (Q07157 whole entry): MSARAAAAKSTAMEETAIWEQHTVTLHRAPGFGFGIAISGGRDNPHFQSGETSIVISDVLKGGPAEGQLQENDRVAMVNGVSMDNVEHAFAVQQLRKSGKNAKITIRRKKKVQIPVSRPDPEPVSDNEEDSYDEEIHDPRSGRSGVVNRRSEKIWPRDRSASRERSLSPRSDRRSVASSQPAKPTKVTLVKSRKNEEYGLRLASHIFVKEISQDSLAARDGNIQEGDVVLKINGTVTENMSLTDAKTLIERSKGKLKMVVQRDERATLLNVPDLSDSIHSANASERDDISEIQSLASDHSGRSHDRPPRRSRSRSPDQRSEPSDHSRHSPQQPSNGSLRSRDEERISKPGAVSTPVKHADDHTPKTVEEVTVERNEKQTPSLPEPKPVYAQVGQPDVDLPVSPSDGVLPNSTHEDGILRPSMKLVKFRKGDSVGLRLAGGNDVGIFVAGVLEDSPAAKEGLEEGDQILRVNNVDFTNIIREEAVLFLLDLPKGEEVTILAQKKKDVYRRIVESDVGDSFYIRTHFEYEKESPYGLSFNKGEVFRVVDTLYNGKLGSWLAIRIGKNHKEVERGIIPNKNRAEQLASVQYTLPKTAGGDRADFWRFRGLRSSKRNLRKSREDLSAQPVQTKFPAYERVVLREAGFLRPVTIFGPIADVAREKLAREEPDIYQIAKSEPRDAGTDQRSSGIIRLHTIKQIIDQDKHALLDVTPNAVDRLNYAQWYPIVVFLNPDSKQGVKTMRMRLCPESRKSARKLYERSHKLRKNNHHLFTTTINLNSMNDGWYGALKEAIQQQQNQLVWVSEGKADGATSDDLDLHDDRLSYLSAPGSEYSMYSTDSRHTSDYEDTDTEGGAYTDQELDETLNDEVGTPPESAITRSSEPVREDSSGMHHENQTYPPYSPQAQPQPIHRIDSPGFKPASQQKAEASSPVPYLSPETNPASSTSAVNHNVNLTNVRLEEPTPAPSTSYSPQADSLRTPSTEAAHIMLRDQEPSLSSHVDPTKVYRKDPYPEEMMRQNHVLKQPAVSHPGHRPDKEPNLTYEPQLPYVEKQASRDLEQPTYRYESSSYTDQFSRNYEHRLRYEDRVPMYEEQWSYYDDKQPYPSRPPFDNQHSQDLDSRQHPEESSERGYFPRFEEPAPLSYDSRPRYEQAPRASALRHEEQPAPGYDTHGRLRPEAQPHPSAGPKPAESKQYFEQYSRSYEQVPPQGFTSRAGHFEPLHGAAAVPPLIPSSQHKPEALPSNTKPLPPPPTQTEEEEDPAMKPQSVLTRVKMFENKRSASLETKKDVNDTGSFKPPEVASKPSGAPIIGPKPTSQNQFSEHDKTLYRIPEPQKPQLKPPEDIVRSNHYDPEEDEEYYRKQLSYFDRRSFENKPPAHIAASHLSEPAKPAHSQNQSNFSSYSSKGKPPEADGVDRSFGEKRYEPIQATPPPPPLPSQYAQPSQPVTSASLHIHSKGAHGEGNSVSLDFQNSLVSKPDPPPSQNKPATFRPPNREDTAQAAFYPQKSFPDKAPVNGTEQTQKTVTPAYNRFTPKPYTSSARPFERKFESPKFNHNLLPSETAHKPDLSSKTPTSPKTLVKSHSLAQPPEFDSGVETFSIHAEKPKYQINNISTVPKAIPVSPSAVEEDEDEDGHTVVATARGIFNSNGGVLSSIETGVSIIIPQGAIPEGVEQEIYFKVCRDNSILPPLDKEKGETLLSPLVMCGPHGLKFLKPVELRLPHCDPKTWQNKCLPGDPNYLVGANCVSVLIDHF

Regarding “Cx36 D317A (from UniProt O54851 1-321) (natural protein)”, the fold increase in binding over wild type Cx36 in experiment [1] was 5 to 7 times.

Take “His-Venus-PDZ1 (ZO-1) (domain or fragment)”: the fold increase in binding over the wild-type peptide in experiment [2] was determined as 10 fold; in experiment [3] it was 5 fold.

Substance “Cx36 D317F (from UniProt O54851 1-321) (natural protein)” yielded a fold increase in binding over wild type Cx36 in experiment [1] of 5 to 7 times.
